Reference: patent US20240132578A1

Assays:
Assay in all cases: cell-based or functional assay
[1] = target: HIV-1 MGRM-AE-005 Env (pseudovirus) (HIV-1)
[2] = target: HIV-1 Env of isolate 94UG103 (clade A pseudovirus) (HIV-1)
[3] = target: HIV-1 MGRM-AG-002 Env (pseudovirus) (HIV-1)
[4] = target: HIV-1 envelope glycoprotein (Env) of isolate MGRM-C-013 (HIV-1)
[5] = target: HIV-1 Env of isolate TRJ0.58 (Acute), clade B (HIV-1)
[6] = target: HIV-1 Env of isolate MGRM-A-006 (clade A pseudovirus) (HIV-1)
[7] = target: HIV-1 envelope glycoprotein (Env) of isolate MGRM-C-022 (HIV-1)
[8] = target: HIV-1 Env of isolate MGRM-A-003 (clade A pseudovirus) (HIV-1)
[9] = target: HIV-1 envelope glycoprotein (Env) of isolate MGRM-C-012 (HIV-1)
[10] = target: HIV-1 envelope glycoprotein (Env) of isolate MGRM-C-025 (HIV-1)
[11] = target: HIV-1 Env of isolate MGRM-A-013 (clade A pseudovirus) (HIV-1)
[12] = target: HIV-1 Env of isolate THR0.18 (Acute), clade B (HIV-1)
[13] = target: HIV-1 Env of isolate MGRM-D-020 (clade D pseudovirus) (HIV-1)
[14] = target: HIV-1 Env of pseudovirus MGRM-F1-018 (clade F) (HIV-1)
[15] = target: HIV-1 envelope glycoprotein (Env) of isolate MGRM-C-017 (HIV-1)
[16] = target: HIV-1 Env of isolate 92UG005 (clade D pseudovirus) (HIV-1)
[17] = target: HIV-1 Env of isolate MGRM-D-029 (clade D pseudovirus) (HIV-1)
[18] = target: HIV-1 Env of pseudovirus MGRM-G-013 (HIV-1)
[19] = target: HIV-1 Env of pseudovirus MGRM-F1-021 (clade F) (HIV-1)
[20] = target: HIV-1 envelope glycoprotein (Env) of isolate MGRM-C-006 (HIV-1)
[21] = target: HIV-1 MGRM-AE-008 Env (pseudovirus) (HIV-1)
[22] = target: HIV-1 Env of isolate MGRM-AE-007 (subtype AE) (HIV-1)
[23] = target: HIV-1 JR-CSF Env P313A (HIV-1 (isolate JR-CSF, clade B)) (UniProt P20871)
[24] = target: HIV-1 Env of isolate MGRM-AE-001 (subtype AE) (HIV-1)
[25] = target: HIV-1 Env of isolate MGRM-A-010 (subtype A) (HIV-1)
[26] = target: HIV-1 Env of pseudovirus isolate MGRM-C-023 (clade C) (HIV-1)
[27] = target: HIV-1 Env of isolate MGRM-C-001 (HIV-1)
[28] = target: HIV-1 JR-CSF Env N396A (HIV-1 (isolate JR-CSF)) (UniProt P20871)
[29] = target: HIV-1 JR-CSF Env L416A (HIV-1 (isolate JR-CSF)) (UniProt P20871)

1443_C16 (PG16) (TCN-116) (antibody), sequence (VH): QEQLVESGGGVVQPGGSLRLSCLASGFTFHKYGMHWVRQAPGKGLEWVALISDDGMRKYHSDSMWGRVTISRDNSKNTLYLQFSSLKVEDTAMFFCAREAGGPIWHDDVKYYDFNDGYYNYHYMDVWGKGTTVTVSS
1443_C16 (PG16) (TCN-116) (antibody), sequence (VL): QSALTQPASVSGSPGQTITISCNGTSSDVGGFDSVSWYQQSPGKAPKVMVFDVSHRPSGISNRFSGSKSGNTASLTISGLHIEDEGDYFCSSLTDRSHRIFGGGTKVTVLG

Substance	IC50 (µg/ml), pseudovirus neutralization [1] [µg/mL]	IC50 (µg/ml), pseudovirus neutralization [2] [µg/mL]	IC50 (µg/ml), pseudovirus neutralization [3] [µg/mL]	IC50 (µg/ml), pseudovirus neutralization [4] [µg/mL]	IC50 (µg/ml), pseudovirus neutralization [5] [µg/mL]	IC50 (µg/ml), pseudovirus neutralization [6] [µg/mL]	IC50 (µg/ml), pseudovirus neutralization [7] [µg/mL]	IC50 (µg/ml), pseudovirus neutralization [8] [µg/mL]	IC50 (µg/ml), pseudovirus neutralization [9] [µg/mL]	IC50 (µg/ml), pseudovirus neutralization [10] [µg/mL]	IC50 (µg/ml), pseudovirus neutralization [11] [µg/mL]	IC50 (µg/ml), pseudovirus neutralization [12] [µg/mL]	IC50, pseudovirus neutralization [13] [µg/mL]	IC50 [14] [µg/mL]	IC50 (µg/ml), pseudovirus neutralization [15] [µg/mL]	IC50, pseudovirus neutralization [16] [µg/mL]	IC50, pseudovirus neutralization [17] [µg/mL]	IC50 (µg/ml), pseudovirus neutralization [18] [µg/mL]	IC50 [19] [µg/mL]	IC50 (µg/ml), pseudovirus neutralization [20] [µg/mL]	other results
1495_C14 (PGC14) (antibody)	> 50	> 50	> 50	> 50	> 50	> 50	> 50	> 50	> 50	> 50	> 50	> 50	> 50	> 50	> 50	> 50	> 50	> 50	46	> 50	IC50 (µg/ml), pseudovirus neutralization [21]: > 50 µg/mL
2F5 (antibody)	0.14	1.92	0.54	18.4	> 50	15.7	> 50	7.37	> 50	> 50	0.66	> 50	> 50	3.91	> 50	8.61	> 50	0.59	1.37	> 50	IC50 (µg/ml), pseudovirus neutralization [21]: > 50 µg/mL
5136_H01 (PGT-131) (antibody)																					IC50, pseudovirus neutralization [22]: 0.026 µg/mL; Fold IC50 increase relative to wild-type [23]: 0.52 fold; IC50, pseudovirus neutralization [24]: 4.8 µg/mL; IC50, pseudovirus neutralization [25]: 10 ng/mL; IC50, pseudovirus neutralization [26]: 0.143 µg/mL; IC50 (µg/mL), pseudovirus neutralization [27]: > 50 µg/mL; Fold IC50 increase relative to wild-type (pseudovirus neutralization) [28]: 0.9 fold; Fold IC50 increase relative to wild-type (pseudovirus neutralization) [29]: 1 fold
b12 (antibody)	0.63	6.92	0.89	> 50	> 50	13.6	> 50	> 50	> 50	> 50	7.04	3.62	> 50	> 50	> 50	> 50	> 50	> 50	> 50	> 50	IC50 (µg/ml), pseudovirus neutralization [21]: > 50 µg/mL
4E10 (antibody)	0.47	4.97	0.8	2.1	11.9	9.87	5.71	5.94	0.44	5.58	1.46	4.68	> 50	3.6	1.47	7.46	5.3	1.15	1.87	4.94	IC50 (µg/ml), pseudovirus neutralization [21]: 0.94 µg/mL
2G12 (antibody)	> 50	48.1	0.54	> 50	> 50	13.8	> 50	> 50	> 50	> 50	> 50	> 50	> 50	> 50	> 50	> 50	> 50	> 50	14.1	> 50	IC50 (µg/ml), pseudovirus neutralization [21]: > 50 µg/mL
1443_C16 (PG16) (TCN-116) (antibody)	0.02	0.04	0.03	> 50	1.16	> 50	0.25	2.65	0.48	0.04	0.09	1.34	16.3	0.01	1.8	> 50	> 50	> 50	> 50	2.62	IC50 (µg/ml), pseudovirus neutralization [21]: 3.25 µg/mL
5147_N06 (PGT-130) (antibody)																					IC50, pseudovirus neutralization [22]: 0.083 µg/mL; Fold IC50 increase relative to wild-type [23]: 0.3 fold; IC50, pseudovirus neutralization [24]: 1 µg/mL; IC50, pseudovirus neutralization [25]: 5 ng/mL; IC50, pseudovirus neutralization [26]: 0.151 µg/mL; IC50 (µg/mL), pseudovirus neutralization [27]: > 50 µg/mL; Fold IC50 increase relative to wild-type (pseudovirus neutralization) [28]: 1 fold; Fold IC50 increase relative to wild-type (pseudovirus neutralization) [29]: 1 fold
